Reference: patent US11572394B2, “Peptides for targeting LRP6-overexpressed cells” (PASTEUR INSTITUTE OF IRAN, priority 2020, dated 2023)

How the values were obtained:
Format in all cases: cell-based, human
[1] = tested on: Wnt signaling pathway, HCT116 cell line; assay: Western blotting of LRP6 and β-catenin proteins with signal densitometry; conditions: HCT116, Western blot
Protocol: (§1) In this example, the effect of exemplary peptides on the expression of LRP6 and downstream genes of the Wnt signaling pathway, such as β-catenin, cyclin D1, and C-MYC, was evaluated at transcription level using real-time PCR and at translation level using Western blotting. The Gapdh gene was used as the reference gene. The expression fold change of more than 2 times (treated cell against untreated cell) was defined as increasing expression, and cases with a fold change of 0.5 to 2 were unchanged, and cases with expression fold change less than 0.5 were considered as a reduction in expression.
(§2) Also, the effect of exemplary peptides on the levels of LRP6 and β-catenin proteins in the β-catenin/Wnt signaling pathway was investigated by Western blotting. Also, each protein's relative expression was determined through signal densitometry of each Western blot band.

[2] = tested on: Wnt signaling pathway, SW480 cell line; assay: as above; conditions: SW480, Western blot
Protocol: as §1, §2

[3] = tested on: Wnt signaling pathway, HUVEC cell line; assay: as above; conditions: Western blot
Protocol: as §1
Also, the effect of exemplary peptides on the levels of LRP6 and β-catenin proteins in the β-catenin/Wnt signaling pathway was investigated by Western blotting. Also, each protein's relative expression was determined through signal densitometry of each Western blot band. FIG. 11A illustrates relative expression β-actin, β-catenin, and LRP6 in SW480, HCT116, and HUVEC cell lines, consistent with one or more exemplary embodiments of the present disclosure. Referring to FIG. 11A, the relative expressions of β-catenin and LRP6 in SW480 and HCT116 were higher than HUVEC as a normal cell.

HCT116 = assay: Cell cycle analysis by flow cytometry (DNA content); conditions: HCT116, 24 hours
Protocol: (§3) In this example, the effect of exemplary peptides on the cell cycle was determined through flow cytometry and measurement of DNA content in cells. In this experiment, HCT116, SW480, and HUVEC cell lines were cultured in 24-well plates and treated with 1 mM of each exemplary peptide for 24 hours.
(§4) The cell proliferation index may be calculated by dividing the percentage of cells present in the S and G2 stages by the percentage of cells in the G1, S, and G2 stages. […] Also, the proliferation index in SW480 and HCT116 cell lines decreased after treatment with exemplary peptides (SEQ ID NOs: 1-4). On the other hand, the decrease in the proliferation index of HUVEC cells was smaller than that of SW480 and HCT116 cell lines.

HUVEC = assay: as above; conditions: 24 hours
Protocol: as §3, §4

SW480 = assay: as above; conditions: SW480, 24 hours
Protocol: as §3, §4

B1: DKK1: Dickkopf-related protein 1, natural inhibitor of the Wnt signaling pathway, antagonist ligand of LRP6, negative control (protein)
chain: TLNSVLNSNAIKNLPPPLGGAAGHPGSAVSAAPGILYPGGNKYQTIDNYQPYPCAEDEECGTDEYCASPTRGGDAGVQICLACRKRRKRCMRHAMCCPGNYCKNGICVSSDQNHFRGEIEETITESFGNDHSTLDGYSRRTTLSSKMYHTKGQEGSVCLRSSDCASGLCCARHFWSKICKPVLKEGQVCTKHRRKGSHGLEIFQRCYCGEGLSCRIQKDHHQASNSSRLHTCQRH
decreased: S and G2/M stage percentage (HCT116) | S and G2/M stage percentage (HUVEC) | S and G2/M stage percentage (SW480)
increased: percentage of cells in the G0/G1 stage (HCT116) | percentage of cells in the G0/G1 stage (HUVEC) | percentage of cells in the G0/G1 stage (SW480)
did not alter: level of LRP6 protein [1] | level of LRP6 protein [2] | level of LRP6 protein [3]
